Laboratory results as given in patent US11110182B2, “Multifunctional RNA nanoparticles and methods for treating cancer and therapeutic resistant cancer” (University of Cincinnati, priority 2016, dated 2021).

B1: pRNA-HER2apt-siMED1: 3-WJ pRNA nanoparticle bearing a HER2-targeting RNA aptamer and two different MED1 siRNAs; strands p1 SEQ ID NO: 3, p2 SEQ ID NO: 4 (nucleic acid)
chain 1: GGACAGUGAAAGUGAGUCAAAGGAUCAAUCAUGGCCAAAGAUGUUACUUUGAGAGCCUU
chain 2: GGCUCUCAAAGUAACAUCUAAGGCCAUGUGUAUGUGGGGGGAGGACGAUGCGGUCUGCUGUGCUUGAUAUGCCCCAGACGACUCGCCCCCCACAUACUUUGUUGAUCCAAUGACUCACUUUCACUGUCCUU
modifications: 2'-F modification; third strand may lack entry; pRNA-HER2apt-siMED1, p1; pRNA-HER2apt-siMED1, p2
B2: pRNA-HER2apt^mut-siMED1: control pRNA nanoparticle with mutant HER2 aptamer; strands p1 SEQ ID NO: 5, p2 SEQ ID NO: 6 (nucleic acid)
chain 1: B1 chain 1
chain 2: GGCUCUCAAAGUAACAUCUAAGGCCAUGUGUAUGUGGGAUGAGGAGUAUGAAGAUACCUGUACUUGAUAUGCCCCAGACGACAUUCCCCCCACAUACUUUGUUGAUCCAAUGACUCACUUUCACUGUCCUU
modifications: pRNA-HER2apt(mut)-siMED1, p1; pRNA-HER2apt(mut)-siMED1, p2

Test system: MED1 mRNA
Assay: MED1 mRNA level by real-time PCR in BT474 cells
Type: cell-based, human
Details: BT474, 10 μg/mL, 48 h, direct incubation
Method: FIG. 3A) BT474 cells were incubated with 10 μg/mL control and pRNA-HER2apt-siMED1 nanoparticles for 48 h, and MED1 mRNA level was determined by real-time PCR. FIG. 3B) BT474 cells were incubated directly with (as indicated by -) or transfected with indicated pRNAs using lipofectamine 2000. At 48 h post treatment, MED1 protein levels were determined by western blotting. FIG. 3C) BT474 cells were treated with 10 μg/mL pRNA nanoparticles for 48 h and assayed for cell viability by MTT assay. FIG. 3D) Cells were treated as above and seeded for migration, and FIG. 3E) invasion transwell assays. Scale bar: 50 μm. FIG. 3F) After pRNA treatment for 48 h, the mRNA levels of ERα target genes TFF-1, FIG. 3G) c-Myc, and FIG. 3H) cyclin D1 in BT474 cells were determined by real-time PCR.
Cell culture. […] The hydrodynamic diameter and Tm value of pRNA nanoparticles were determined using dynamic light scattering and TGGE assay, respectively, as previously described.^54 The AFM imaging of the pRNA nanoparticles was performed at the University of Nebraska Medical Center imaging facility as previously reported.^55 Briefly, the pRNA nanoparticles (5 μL) were deposited on APS modified mica ^56 for a total of 2 min of incubation time. […] After washing three times with PBS, the cellular uptake of pRNAs was determined using a BD LSRFortessa™ flow cytometer. • Real-time PCR. […]

Molecule | depletion of MED1 mRNA
B1 | ~70%
B2 | not
